Experiments:
Conditions in all cases: 37° C.
Stability in rat plasma = assay type: in vitro ADME
Procedure: (§1) The objective of the study was to assess the stability of 4-ARM-PEG20K-BA-docetaxel in mouse, rat, dog, and human plasma.
(§2) 4-ARM-PEG20K-BA-docetaxel was spiked ([…]; 60 μM) into heparinized, pooled male mouse, rat, and dog plasma; mixed sex pooled human plasma; and phosphate buffered saline. Triplicate samples were incubated at 37° C. for 0, 15, 30, 60, 120, and 240 min. Aliquots were removed at each timepoint and analyzed for disappearance of 4-ARM-PEG20K-BA-docetaxel and appearance of docetaxel using the validated dog plasma analytical method.

Stability in dog plasma = assay type: in vitro ADME
Procedure: as §1, §2

[1] = Stability in human plasma; assay type: in vitro ADME
Procedure: as §1, §2

[2] = Stability in phosphate buffered saline; assay type: physicochemical
Procedure: as §1, §2

4-ARM-PEG20K-Butanoate-Linked Docetaxel Conjugate [4-ARM-PEG20K-BA-DOC]
Conjugate remaining at 4 hr (%) (Stability in rat plasma; 60 μM): 64% | Docetaxel released at 4 hr (%) (Stability in rat plasma; 60 μM): 20% | Mass balance (%) (Stability in rat plasma; 4 hr): 84% | Conjugate remaining at 4 hr (%) (Stability in dog plasma; 60 μM): 93% | Docetaxel released at 4 hr (%) (Stability in dog plasma; 60 μM): 3% | Mass balance (%) (Stability in dog plasma; 4 hr): 95% | Conjugate remaining at 4 hr (%) ([1]; 60 μM): 88% | Docetaxel released at 4 hr (%) ([1]; 60 μM): 4% | Mass balance (%) ([1]; 4 hr): 92% | Docetaxel released at 4 hr (%) ([2]; 60 μM): 0.6% | Mass balance (%) ([2]; 4 hr): 86%
